Assays:
[1] = system: SW48 tumors; test: Subcutaneous SW48 tumors in SCID mice; assay type: in vivo, mouse; settings: sc SW48 tumors; EP 0.5 mg/kg ip daily plus PEPD^G278D 4 mg/kg ip three times weekly, or cetuximab 15 mg/kg ip twice weekly
Method: SCID mice (C.B.17 SCID) were bred by the Laboratory Animal Shared Resource at Roswell Park Comprehensive Cancer Center. Male mice at 7-8 weeks of age were used. All mouse experiments were approved by the Institutional Animal Care and Use Committee at Roswell Park Comprehensive Cancer Center under protocol 1022M. We established subcutaneous tumors by inoculating 1×10^6 HCT116 cells, 4×10^6 HT29 cells, or 2×10^6 SW48 cells to the flank of each mouse in 100 μl of serum free medium. Colon patient-derived xenograft (PDX) 14650 was established from a liver metastatic lesion in a patient treated at Roswell Park Comprehensive Cancer Center. Tumor fragments (˜20 mm^3) from donor mice were implanted into the flank of each mouse subcutaneously using a trocar. […] Subcutaneous tumor volume was measured using length ×width^2÷2. Tumor volume was measured three times each week. Orthotopic tumor growth was monitored by bioluminescence weekly. Mice were given D-luciferin (150 mg/kg) by ip and anesthetized with isoflurane, and tumor burden was measured by bioluminescence using the IVIS Spectrum In Vivo Imaging System (PerkinElmer). Drug treatment was started when significant tumor growth was detected. […] The mice were closely monitored for sign of adverse effects and weighed three times each week. […]

[2] = system: EGFR and HER2; test: Western blotting of tumor homogenates: EGFR and HER2; assay type: in vivo, mouse; settings: 24 h after the final dose
Method: To prepare whole cell lysates, cells were washed with PBS twice, mixed with 1× cell lysis buffer from Cell Signaling Technology supplemented with 2 mM PMSF and a protease inhibitor cocktail from Roche Applied Science, placed on ice for 10 min, sonicated at 0-4° C. to enhance cell lysis using a Branson Model 450 sonifier, and finally centrifuged at 13,000 g for 10 min at 4° C., and the supernatant fraction is collected as whole cell lysate. […]
Protein concentrations in all samples were measured using the BCA Assay Kit. […] Proteins were transferred to polyvinylidene fluoride membrane, probed with specific antibodies, and detected using either Luminata Classico (Millipore) or Luminata Cresendo (Millipore). […] The beads were washed three times with IP buffer, suspended in 2× SDS loading buffer, boiled for 5 min, and analyzed by Western blotting.
SCID mice (C.B.17 SCID) were bred by the Laboratory Animal Shared Resource at Roswell Park Comprehensive Cancer Center. […] Subcutaneous tumor volume was measured using length ×width^2÷2. Tumor volume was measured three times each week. Orthotopic tumor growth was monitored by bioluminescence weekly. Mice were given D-luciferin (150 mg/kg) by ip and anesthetized with isoflurane, and tumor burden was measured by bioluminescence using the IVIS Spectrum In Vivo Imaging System (PerkinElmer). Drug treatment was started when significant tumor growth was detected. […]

B1: PEPD^G278D: recombinant and enzymatically inactive mutant of human peptidase D (PEPD), with replacement of glycine 278 by aspartic acid (protein)
chain: AAATGPSFWLGNETLKVPLALFALNRQRLCERLRKNPAVQAGSIVVLQGGEETQRYCTDTGVLFLQESFFHWAFGVTEPGCYGVIDVDTGKSTLFVPRLPASHATWMGKIHSKEHFKEKYAVDDVQYVDEIASVLTSQKPSVLLTLRGVNTDSGSVCREASFDGISKFEVNNTILHPEIVESRVFKTDMELEVLRYTNKISSEAHREVMKAVKVGMKEYGLESLFEHYCYSRGGMRHSSYTCICGSGENSAVLHYGHAGAPNDRTIQNGDMCLFDMDGEYYSVASDITCSFPRNGKFTADQKAVYEAVLLSSRAVMGAMKPGDWWPDIDRLADRIHLEELAHMGILSGSVDAMVQAHLGAVFMPHGLGHFLGIDVHDVGGYPEGVERIDEPGLRSLRTARHLQPGMVLTVEPGIYFIDHLLDEALADPARASFLNREVLQRFRGFGGVRIEEDVVVIDSGIELLTCVPRTVEEIEACMAGCDKAFTPFSGPK
modifications: left off: small tags and cut ends
For B1, the “inhibition of tumor growth at the end of treatment” value [1] was 91.5%, the “effect on EGFR, HER2 and ERK in tumors” value ([2]; HCT116 and HT29 tumors) was “neither PEPD^G278D nor cetuximab had any effect” and the “expression and phosphorylation of EGFR and HER2 in tumors” value ([2]; SW48 tumors) was “decreased the expression and phosphorylation of both EGFR and HER2”.

Reference: patent publication US20250009852A1, “DEPLETING EGFR AND HER2 OVERCOMES RESISTANCE TO EGFR INHIBITORS IN COLORECTAL CANCER” (Health Research, Inc., priority 2021, published 2025)
